In patent publication US20040161739A1:

Columns and labels:
[1] = target: IL-8A interleukin receptor (UniProt P25024); assay: cell-based or functional assay
[2] = target: active human CCR5 chemokine receptor (human) (UniProt P51681); assay: cell-based or functional assay
Sequence of UniProt P51681 (P51681 whole entry): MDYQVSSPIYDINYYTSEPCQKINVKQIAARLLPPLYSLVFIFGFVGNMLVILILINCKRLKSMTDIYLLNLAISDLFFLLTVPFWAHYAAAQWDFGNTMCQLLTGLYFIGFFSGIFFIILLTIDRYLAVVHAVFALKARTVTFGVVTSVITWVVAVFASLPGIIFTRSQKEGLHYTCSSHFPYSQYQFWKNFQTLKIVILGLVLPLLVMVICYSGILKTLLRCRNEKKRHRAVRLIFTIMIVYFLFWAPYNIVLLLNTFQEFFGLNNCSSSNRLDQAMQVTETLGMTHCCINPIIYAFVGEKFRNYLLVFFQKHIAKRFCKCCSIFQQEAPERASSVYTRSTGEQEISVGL

Row | Substance | increase in metabolic activity (microphysiometer) [1] [%] | EC50 of the acidification response (microphysiometer) [2] [nM] | acidification rate at 30 nM, percent of baseline level (% of baseline level) [2]
1 | recombinant human IL-8 (Interleukin 8) (from UniProt P10145 28-99) (ligand) | 160 |  | 
2 | recombinant human MIP-1α (Macrophage Inflammatory Protein 1 α) (from UniProt P10147 27-92) (ligand) |  | 3 | 156
